Test results: the Immune Epitope Database (IEDB)

Columns and labels:
HLA-A*02:01 [1] = assay: IEDB peptide-MHC binding, purified MHC/competitive/radioactivity; ≥ and ≤ were set here for values at or beyond the usual limits of such assays
HLA-A*02:01 [2] = assay: IEDB peptide-MHC binding, purified MHC/competitive/radioactivity; filed as Kd, often an IC50 or EC50 that approximates it; ≥ and ≤ were set here for values at or beyond the usual limits of such assays; conditions: source organism: Homo sapiens
HLA-B*07:02 [3] = assay: IEDB peptide-MHC binding, purified MHC/competitive/fluorescence; ≥ and ≤ were set here for values at or beyond the usual limits of such assays
HLA-B*08:01 [4] = assay: as above; conditions: source organism: Zaire ebolavirus
HLA-A*02:01 [5] = assay: as above
HLA-B*15:01 [6] = assay: as above
HLA-A*26:01 [7] = assay: IEDB peptide-MHC binding, purified MHC/direct/fluorescence; filed as Kd, often an IC50 or EC50 that approximates it; ≥ and ≤ were set here for values at or beyond the usual limits of such assays; conditions: source organism: Giardia lamblia ATCC 50803
HLA-A*26:02 [8] = assay: as above
HLA-A*11:01 [9] = assay: IEDB peptide-MHC binding, purified MHC/competitive/fluorescence; filed as Kd, often an IC50 or EC50 that approximates it; ≥ and ≤ were set here for values at or beyond the usual limits of such assays
HLA-A*31:01 [10] = assay: as above; conditions: source organism: Dengue virus 2 Thailand/NGS-C/1944
HLA-A*03:01 [11] = assay: IEDB peptide-MHC binding, purified MHC/competitive/fluorescence; ≥ and ≤ were set here for values at or beyond the usual limits of such assays; conditions: source organism: Variola virus
HLA-A*11:01 [12] = assay: as above; conditions: source organism: Variola virus
HLA-A*24:02 = assay: as above; conditions: source organism: Variola virus
HLA-A*01:01 = assay: IEDB peptide-MHC binding, purified MHC/direct/fluorescence; filed as Kd, often an IC50 or EC50 that approximates it; ≥ and ≤ were set here for values at or beyond the usual limits of such assays; conditions: source organism: Marburg virus - Musoke, Kenya, 1980
HLA-A*02:01 [13] = assay: as above
HLA-A*11:01 [14] = assay: as above; conditions: source organism: Marburg virus - Musoke, Kenya, 1980
HLA-A*31:01 [15] = assay: as above
HLA-A*68:02 = assay: as above; conditions: source organism: Marburg virus - Musoke, Kenya, 1980
HLA-A*69:01 = assay: as above
HLA-B*07:02 [16] = assay: as above
HLA-B*08:01 [17] = assay: as above
HLA-B*15:01 [18] = assay: as above
HLA-B*15:02 = assay: as above
HLA-B*15:17 [19] = assay: as above; conditions: source organism: Marburg virus - Musoke, Kenya, 1980
HLA-B*27:05 = assay: as above
HLA-B*46:01 = assay: as above
HLA-B*48:01 = assay: as above
HLA-B*57:01 = assay: as above
HLA-B*58:01 = assay: as above
HLA-A*26:02 [20] = assay: IEDB peptide-MHC binding, purified MHC/competitive/fluorescence; filed as Kd, often an IC50 or EC50 that approximates it; ≥ and ≤ were set here for values at or beyond the usual limits of such assays; conditions: source organism: Orthomarburgvirus marburgense
HLA-A*30:02 = assay: IEDB peptide-MHC binding, purified MHC/competitive/radioactivity; filed as Kd, often an IC50 or EC50 that approximates it; ≥ and ≤ were set here for values at or beyond the usual limits of such assays; conditions: source organism: Dengue virus 1 Brazil/97-11/1997
HLA-B*15:01 [21] = assay: as above; conditions: source organism: Dengue virus 1 Brazil/97-11/1997
HLA-A*03:01 [22] = assay: IEDB peptide-MHC binding, purified MHC/direct/fluorescence; filed as Kd, often an IC50 or EC50 that approximates it; ≥ and ≤ were set here for values at or beyond the usual limits of such assays; conditions: source organism: Influenza A virus (A/Hong Kong/514/97(H5N1))
HLA-B*40:01 = assay: as above; conditions: source organism: Influenza A virus (A/Hong Kong/514/97(H5N1))
HLA-C*08:02 = assay: as above; conditions: source organism: Influenza A virus (A/Hong Kong/1074/1999(H9N2))
HLA-B*15:17 [23] = assay: IEDB peptide-MHC binding, purified MHC/competitive/fluorescence; filed as Kd, often an IC50 or EC50 that approximates it; ≥ and ≤ were set here for values at or beyond the usual limits of such assays; conditions: source organism: Influenza A virus (A/Hong Kong/1074/1999(H9N2))
HLA-C*14:02 = assay: IEDB peptide-MHC binding, purified MHC/direct/fluorescence; filed as Kd, often an IC50 or EC50 that approximates it; ≥ and ≤ were set here for values at or beyond the usual limits of such assays; conditions: source organism: dengue virus type 1
HLA-C*15:02 = assay: as above; conditions: source organism: dengue virus type 1
HLA-A*26:01 [24] = assay: IEDB peptide-MHC binding, purified MHC/competitive/radioactivity; filed as Kd, often an IC50 or EC50 that approximates it; ≥ and ≤ were set here for values at or beyond the usual limits of such assays; conditions: source organism: Dengue virus 1 Brazil/97-11/1997
[25] = source organism: Zaire ebolavirus
[26] = source organism: Marburg virus - Musoke, Kenya, 1980
[27] = source organism: Orthomarburgvirus marburgense
[28] = source organism: Influenza A virus (A/Hong Kong/514/97(H5N1))

ARDPHSGHFV
IC50 (HLA-A*02:01 [1]; source organism: Homo sapiens): ≥ 20 µM
Kd (HLA-A*02:01 [2]): 2.71 µM

GGRRTRREA
IC50 (HLA-B*07:02 [3]; [25]): ≥ 120 µM
IC50 (HLA-B*08:01 [4]): ≥ 223 µM

GLMHNQDGL
IC50 (HLA-A*02:01 [5]; [25]): 1.58 µM
IC50 (HLA-B*07:02 [3]; [25]): ≥ 81.9 µM
IC50 (HLA-B*15:01 [6]; [25]): 51.6 µM

ITSGHSWAY
Kd (HLA-A*26:01 [7]): 0.028 µM
Kd (HLA-A*26:02 [8]; source organism: Giardia lamblia ATCC 50803): 0.034 µM

KTFVDLMRR
Kd (HLA-A*11:01 [9]; source organism: Dengue virus 2 Thailand/NGS-C/1944): 0.0123 µM
Kd (HLA-A*31:01 [10]): 0.00102 µM

KVFLPNPAF
IC50 (HLA-A*02:01 [5]; source organism: Variola virus): 55.1 µM
IC50 (HLA-A*03:01 [11]): 64.8 µM
IC50 (HLA-A*11:01 [12]): 40.5 µM
IC50 (HLA-A*24:02): 9.77 µM
IC50 (HLA-B*07:02 [3]; source organism: Variola virus): ≥ 143 µM
IC50 (HLA-B*15:01 [6]; source organism: Variola virus): 21 µM

NLYVSLLLL
IC50 (HLA-A*02:01 [1]; source organism: Hepatitis B virus subtype ayw): 0.077 µM

NQQVTNSKY
Kd (HLA-A*01:01): ≥ 20 µM
Kd (HLA-A*02:01 [13]; [26]): ≥ 20 µM
Kd (HLA-A*11:01 [14]): ≥ 20 µM
Kd (HLA-A*31:01 [15]; [26]): ≥ 20 µM
Kd (HLA-A*68:02): ≥ 20 µM
Kd (HLA-A*69:01; [26]): ≥ 20 µM
Kd (HLA-B*07:02 [16]; [26]): ≥ 20 µM
Kd (HLA-B*08:01 [17]; [27]): ≥ 20 µM
Kd (HLA-B*15:01 [18]; [26]): 0.0803 µM
Kd (HLA-B*15:02; [27]): 0.087 µM
Kd (HLA-B*15:17 [19]): ≥ 20 µM
Kd (HLA-B*27:05; [26]): ≥ 20 µM
Kd (HLA-B*46:01; [26]): ≥ 20 µM
Kd (HLA-B*48:01; [26]): ≥ 20 µM
Kd (HLA-B*57:01; [26]): ≥ 20 µM
Kd (HLA-B*58:01; [26]): ≥ 20 µM
Kd (HLA-A*26:02 [20]): ≥ 20 µM

QMVSSVTFI
IC50 (HLA-A*02:01 [1]; source organism: Rhinovirus A): 0.2 µM

RPVILSLPR
IC50 (HLA-A*02:01 [5]; source organism: Variola virus): ≥ 187 µM
IC50 (HLA-A*11:01 [12]): ≥ 122 µM
IC50 (HLA-B*07:02 [3]; source organism: Variola virus): 15 µM

SLADTNSLAV
IC50 (HLA-A*02:01 [1]; source organism: Homo sapiens): 0.0794 µM

SVKKDLISY
Kd (HLA-A*26:02 [8]; source organism: dengue virus type 3): 0.002 µM
Kd (HLA-A*30:02): 0.0261 µM
Kd (HLA-B*15:01 [21]): 0.00596 µM

VSDGGPNLY
Kd (HLA-A*02:01 [13]; [28]): ≥ 20 µM
Kd (HLA-A*03:01 [22]): ≥ 20 µM
Kd (HLA-A*31:01 [15]; [28]): ≥ 20 µM
Kd (HLA-A*69:01; [28]): ≥ 20 µM
Kd (HLA-B*07:02 [16]; [28]): ≥ 20 µM
Kd (HLA-B*08:01 [17]; source organism: Influenza A virus H3N2): ≥ 20 µM
Kd (HLA-B*15:01 [18]; [28]): 2.99 µM
Kd (HLA-B*27:05; [28]): ≥ 20 µM
Kd (HLA-B*40:01): ≥ 20 µM
Kd (HLA-B*46:01; [28]): ≥ 20 µM
Kd (HLA-B*48:01; [28]): ≥ 20 µM
Kd (HLA-B*57:01; [28]): 16.7 µM
Kd (HLA-B*58:01; [28]): 0.553 µM
Kd (HLA-C*08:02): 0.086 µM
Kd (HLA-A*11:01 [9]; source organism: Influenza A virus (A/Hong Kong/1074/1999(H9N2))): ≥ 20 µM
Kd (HLA-B*15:17 [23]): 0.192 µM

YLAGAGLAF
Kd (HLA-B*15:02; source organism: dengue virus type 4): 0.003 µM
Kd (HLA-B*46:01; source organism: Dengue virus 1 Singapore/S275/1990): 0.118 µM
Kd (HLA-C*14:02): 0.046 µM
Kd (HLA-C*15:02): ≥ 20 µM
Kd (HLA-A*26:01 [24]): 0.401 µM
